Assay [1] has as its target LV4-2A2^1-122 (C-terminally truncated 2A2 protein of Ljungan virus 4) (Ljungan virus 4 (strain 64-7855)). Kind of assay: SEC-MALS. On the technique in general: Size exclusion chromatography separates by hydrodynamic size, large species first.
Assay [2] has the same target. Kind of assay: crystal structure.
Assay [3] deals with SEBV1-2A2 (2A2 protein of Sebokele virus 1) (Sebokele virus 1 (SEBV1)). Kind of assay: SEC-SAXS.
For assay [4] the target is unchanged. The experiment in a line: SEC-MALS.
Assay [5] shares this target. Kind of assay: crystal structure.
The target in assay [6] is LV1-2A2 (2A2 protein of Ljungan virus 1, isolate 87-012) (Ljungan virus 1 (isolate 87-012)). Kind of assay: crystal structure.
Assay [7] addresses HPeV3-2A (2A^H/NC protein of human parechovirus 3) (Human parechovirus 3 (HPeV3)). The experiment in a line: SEC-SAXS.
Assay [8] shares this target. The experiment in a line: SEC-MALS.
Assay [9] shares this target. The experiment in a line: crystal structure.
For assay [10], the target named is LV4-2A2 (full-length 2A2 protein of Ljungan virus 4, strain 64-7855) (Ljungan virus 4 (strain 64-7855)). Kind of assay: SEC-SAXS.
Assay [11] shares this target. Kind of assay: SEC-MALS.

Consider “LV4-2A2^1-122 (C-terminally truncated 2A2 protein of Ljungan virus 4) (domain or fragment)”, for which the stoichiometry N in assay [1] and in [2] was 2 in each case.
As to “SEBV1-2A2 (2A2 protein of Sebokele virus 1) (natural protein)”, the stoichiometry N in assay [3], in assay [4] and in [5] was 2 each time.
The substance “LV1-2A2 (2A2 protein of Ljungan virus 1, isolate 87-012) (natural protein)” came in with a stoichiometry N in assay [6] of 2.
“HPeV3-2A (2A^H/NC protein of human parechovirus 3) (natural protein)”: the stoichiometry N in assay [7] came out at 2; in assay [8], 2; in [9], 4.
For the substance “LV4-2A2 (full-length 2A2 protein of Ljungan virus 4, strain 64-7855) (natural protein)”, the stoichiometry N in [10] and in [11] was 2 in each case.

By stoichiometry N is commonly meant a count of units in the complex or per binding partner.
